From publication PMC10967385, “Essential role of obscurin kinase-1 in cardiomyocyte coupling via N-cadherin phosphorylation” (JCI Insight, 2024)
Positions count from the first letter of the chain named.

Target: T1, MBP-p120-catenin(311-747), middle portion of p120-catenin containing armadillo domains 1-8 fused to maltose … (UniProt P30999 311-747)
T1 construct: p120-catenin, middle portion containing armadillo domains 1-8, aa 311-747; source: recombinant protein (source in Supplemental Methods)
T1 sequence (looked up): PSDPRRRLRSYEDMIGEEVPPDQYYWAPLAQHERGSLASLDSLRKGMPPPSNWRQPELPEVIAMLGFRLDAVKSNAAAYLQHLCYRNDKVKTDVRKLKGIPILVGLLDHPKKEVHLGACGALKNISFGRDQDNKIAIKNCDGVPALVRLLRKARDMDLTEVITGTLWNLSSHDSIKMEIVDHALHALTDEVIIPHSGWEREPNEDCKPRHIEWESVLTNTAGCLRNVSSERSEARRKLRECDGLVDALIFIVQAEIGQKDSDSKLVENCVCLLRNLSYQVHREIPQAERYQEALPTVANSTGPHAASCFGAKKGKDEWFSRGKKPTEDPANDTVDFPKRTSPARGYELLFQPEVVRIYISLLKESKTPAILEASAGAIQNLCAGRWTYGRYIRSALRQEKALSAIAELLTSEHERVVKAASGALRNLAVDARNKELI
Test: ITC; VP-ITC, 37°C, PBS pH 7.4; GST-Ncad ligands (80-100 μM) titrated into 10 μM MBP-p120-catenin(311-747) in the sample chamber; control titrations subtracted; 1-site binding model; average of 3 replicates; number of sites fixed to 1 for the SE ligand
Conditions: both partners purified

B1: GST-Ncad(746-906)-WT, recombinant GST-tagged cytoplasmic domain of N-cadherin (domain or fragment, mouse, UniProt P15116 746-906, looked up)
chain: MKRRDKERQAKQLLIDPEDDVRDNILKYDEEGGGEEDQDYDLSQLQQPDTVEPDAIKPVGIRRLDERPIHAEPQYPVRSAAPHPGDIGDFINEGLKAADNDPTAPPYDSLLVFDYEGSGSTAGSLSSLNSSSSGGDQDYDYLNDWGPRFKKLADMYGGGDD
notes: source: recombinant protein (source in Supplemental Methods)
Kd: 1.25 µM

B2: GST-Ncad(746-906)-SE, phosphomimic Ser-788-Glu GST-tagged cytoplasmic domain of N-cadherin (domain or fragment, mouse, UniProt P15116 746-906, looked up)
chain: B1 chain with S43E
notes: as for B1
Kd: 197 µM
